Patent US10456446B2, “Use of human small leucine zipper protein in osteogenesis procedure” (Korea University Research and Business Foundation, priority 2013, dated 2019)

What was measured:
[1] = system: primary MSCs and C3H10T1/2 cells; test: Osteoblast differentiation in primary MSCs and C3H10T1/2 cells; type: cell-based; details: differentiation medium for 8 days
Procedure: Primary human mesenchymal stem cells (MSCs), C3H10T1/2, 293T and MEF cells were cultured in a DMEM to which thermally inactivated 10% FBS and penicillin (100 U/mL)/streptomycin (100 μg/mL) were added. All cell types were cultured in a humidified incubator containing CO2 5% under a temperature condition of 37° C. In order to induce osteoblast differentiation, the medium was exchanged with a DMEM in which 50 μg/mL of ascorbic acid, 10 mM of β-glycerophosphate and 10% FBS were contained for 8 days. The differentiation medium was changed once every two days.
C3H10T1/2 and 293T cells were plated in a 12-well culture dish at a density of 2×10^5 cells/well and incubated for 24 hours. Then, according to instructions of the manufacturer, the cells were transfected with a 0.2 μg of reporter genes and 0.1 to 0.5 μg of a laboratory plasmid using Lipofectamine 2000 or Genefectine. After 24 hours, the cells were cultured in a serum-free DMEM with or without 10 nM of rosiglitazone. siRNAs were prepared using sLZIP and HDAC target sequences (Table 1). […]
Therefore, in order to characterize a potential role of sLZIP in the transcriptional activity of Runx2 by inhibiting the transcriptional activity of PPARγ2, the transcriptional activity of Runx2 was examined. […] A promoter activity was measured by luciferase analysis. […]

NCoR1 = molecular target: T1, NCoR1 (Homo sapiens, UniProt O75376); test: Immunoprecipitation of sLZIP with anti-NCoR1 antibodies in 293T cells; type: binding; details: 10 nM RZD for 24 hours
T1 construct: endogenous in cells; host or cells: 293T
Procedure: 293T cells were obtained and washed with cold PBS. The cells were re-suspended in an IP lysis buffer [25 mM of Tris-HCl (pH 7.4), 150 mM of NaCl, 1 mM of EDTA, 1% NP-40 and 5% glycerol, and a protease inhibitor]. A suspension was centrifuged at 16,000×g for 20 minutes at 4° C. Supernatants were collected and incubated with 0.5 μg of appropriate antibodies and 25 μl of protein A/G-agarose or a GST Sepharose 4B bead for 24 hours at 4° C. A protein complex was centrifuged at 1,000×g with a cold IP lysis buffer for 1 minute and washed five times. The final pellet was re-suspended in 50 μl of an SDS-sample buffer containing 5% β-mercaptoethanol and heated for 10 minutes at 100° C. A protein sample was isolated in SDS-PAGE (8 to 10%) and transferred to nitrocellulose membranes. Co-precipitated proteins were detected according to western blotting using specific antibodies.
For this purpose, 293T cells were transfected with GST-PPARγ2 and Flag-sLZIP and were treated or not treated with 10 nM of RZD for 24 hours. […] A protein complex was analyzed in SDS-PAGE, and immunoblotted with anti-GST and anti-Flag antibodies. […] The cell lysates were GST pull-down analyzed (FIG. 5C). […] The cell lysates were GST pull-down analyzed (FIG. 5D). […] A protein complex was analyzed in SDS-PAGE, and then immunoblotted with anti-NCoR1 and anti-Flag antibodies (FIG. 5E). […]

T1 sequence (O75376 whole entry): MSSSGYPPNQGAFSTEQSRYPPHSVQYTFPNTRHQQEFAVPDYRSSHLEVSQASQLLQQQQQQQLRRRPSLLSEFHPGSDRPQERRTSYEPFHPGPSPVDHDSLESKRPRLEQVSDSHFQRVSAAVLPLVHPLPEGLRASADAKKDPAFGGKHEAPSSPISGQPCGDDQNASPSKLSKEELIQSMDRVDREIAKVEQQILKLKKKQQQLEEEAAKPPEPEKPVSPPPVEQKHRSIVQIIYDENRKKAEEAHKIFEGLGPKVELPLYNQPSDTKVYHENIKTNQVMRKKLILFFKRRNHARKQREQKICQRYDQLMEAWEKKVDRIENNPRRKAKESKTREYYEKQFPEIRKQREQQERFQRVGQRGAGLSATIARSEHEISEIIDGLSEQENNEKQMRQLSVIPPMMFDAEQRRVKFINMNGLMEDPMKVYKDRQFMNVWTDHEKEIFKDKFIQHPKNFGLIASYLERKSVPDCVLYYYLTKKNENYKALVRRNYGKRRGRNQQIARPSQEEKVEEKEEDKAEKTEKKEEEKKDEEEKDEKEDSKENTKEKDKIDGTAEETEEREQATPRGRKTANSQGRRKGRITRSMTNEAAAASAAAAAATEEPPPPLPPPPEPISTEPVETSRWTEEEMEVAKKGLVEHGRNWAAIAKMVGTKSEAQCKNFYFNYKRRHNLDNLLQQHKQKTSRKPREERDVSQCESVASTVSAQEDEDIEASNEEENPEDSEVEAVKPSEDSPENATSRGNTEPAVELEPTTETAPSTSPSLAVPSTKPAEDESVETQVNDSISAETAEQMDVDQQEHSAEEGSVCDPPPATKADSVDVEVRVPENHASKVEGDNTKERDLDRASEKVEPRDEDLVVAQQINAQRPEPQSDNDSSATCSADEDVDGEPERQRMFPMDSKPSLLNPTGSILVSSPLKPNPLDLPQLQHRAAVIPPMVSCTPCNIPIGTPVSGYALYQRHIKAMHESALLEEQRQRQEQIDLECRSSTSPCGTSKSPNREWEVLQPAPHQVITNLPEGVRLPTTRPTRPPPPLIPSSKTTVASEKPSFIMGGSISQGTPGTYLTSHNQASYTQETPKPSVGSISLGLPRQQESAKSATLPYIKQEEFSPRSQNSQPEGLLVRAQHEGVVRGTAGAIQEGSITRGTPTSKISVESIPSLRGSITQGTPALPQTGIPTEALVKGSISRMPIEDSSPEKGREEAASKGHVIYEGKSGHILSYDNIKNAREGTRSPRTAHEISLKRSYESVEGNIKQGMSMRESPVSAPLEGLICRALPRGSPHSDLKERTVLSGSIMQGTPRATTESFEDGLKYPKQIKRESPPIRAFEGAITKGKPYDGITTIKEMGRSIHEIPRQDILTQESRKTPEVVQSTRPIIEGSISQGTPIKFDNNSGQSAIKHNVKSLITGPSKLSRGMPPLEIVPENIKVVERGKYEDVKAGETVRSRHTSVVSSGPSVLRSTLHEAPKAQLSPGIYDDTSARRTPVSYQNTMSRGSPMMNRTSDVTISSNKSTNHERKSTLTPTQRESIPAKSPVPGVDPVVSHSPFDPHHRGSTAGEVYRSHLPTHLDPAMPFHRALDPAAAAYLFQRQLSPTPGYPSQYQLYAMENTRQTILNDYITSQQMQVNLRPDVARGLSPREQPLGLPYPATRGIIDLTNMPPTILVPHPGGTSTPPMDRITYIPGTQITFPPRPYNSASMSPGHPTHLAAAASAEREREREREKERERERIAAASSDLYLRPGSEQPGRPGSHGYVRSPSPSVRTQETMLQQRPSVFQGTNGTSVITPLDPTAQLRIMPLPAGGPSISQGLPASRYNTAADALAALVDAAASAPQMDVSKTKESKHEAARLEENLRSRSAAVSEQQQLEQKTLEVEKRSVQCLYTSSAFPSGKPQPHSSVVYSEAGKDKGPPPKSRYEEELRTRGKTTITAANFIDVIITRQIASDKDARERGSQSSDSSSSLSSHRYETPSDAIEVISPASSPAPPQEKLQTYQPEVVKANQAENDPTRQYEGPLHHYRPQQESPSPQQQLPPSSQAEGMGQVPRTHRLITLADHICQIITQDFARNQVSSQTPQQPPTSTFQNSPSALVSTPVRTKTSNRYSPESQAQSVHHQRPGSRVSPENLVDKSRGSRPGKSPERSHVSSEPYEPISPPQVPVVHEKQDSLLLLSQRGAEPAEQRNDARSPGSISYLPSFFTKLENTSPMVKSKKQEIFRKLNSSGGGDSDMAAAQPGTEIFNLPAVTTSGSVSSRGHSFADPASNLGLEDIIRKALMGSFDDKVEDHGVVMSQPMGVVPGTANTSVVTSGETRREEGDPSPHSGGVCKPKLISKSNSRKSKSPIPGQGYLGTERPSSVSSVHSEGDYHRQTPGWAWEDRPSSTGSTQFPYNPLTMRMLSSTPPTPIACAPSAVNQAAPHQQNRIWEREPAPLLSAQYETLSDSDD

B1: sLZIP: human small leucine-zipper protein, isoform of LZIP, 354 amino acids, no transmembrane domain, GenBank FJ263669, SEQ ID NO: 1 (protein, listed as Homo sapiens)
chain: MELELDAGDQDLLAFLLEESGDLGTAPDEAVRAPLDWALPLSEVPSDWEVDDLLCSLLSPPASLNILSSSNPCLVHHDHTYSLPRETVSMDLESESCRKEGTQMTPQHMEELAEQEIARLVLTDEEKSLLEKEGLILPETLPLTKTEEQILKRVRRKIRNKRSAQESRRKKKVYVGGLESRVLKYTAQNMELQNKVQLLEEQNLSLLDQLRKLQAMVIEISNKTSSSSMYSSDTRGSLPAEHGVLSRQLRALPSEDPYQLELPALQSEVPKDSTHQWLDGSDCVLQAPGNTSCLLHYMPQAPSAEPPLEWPFPDLFSEPLCRGPILPLQANLTRKGGWLPTGSPSVILQDRYSG
With B1 the osteoblast differentiation [1] was “increased osteoblast differentiation” and the “interaction with NCoR1” value (NCoR1) was “slightly dissociated from sLZIP”.
